For data set [1] the following is noted: in vivo; cited from earlier work.
Data set [2] addresses T1, PTH1R (Rattus norvegicus, UniProt P25961).
T1 construct: any cells that express PTH1R and allows the induction of cAMP signaling; host or cells: UMR-106 rat osteosarcoma cells
T1 sequence (P25961 27-591): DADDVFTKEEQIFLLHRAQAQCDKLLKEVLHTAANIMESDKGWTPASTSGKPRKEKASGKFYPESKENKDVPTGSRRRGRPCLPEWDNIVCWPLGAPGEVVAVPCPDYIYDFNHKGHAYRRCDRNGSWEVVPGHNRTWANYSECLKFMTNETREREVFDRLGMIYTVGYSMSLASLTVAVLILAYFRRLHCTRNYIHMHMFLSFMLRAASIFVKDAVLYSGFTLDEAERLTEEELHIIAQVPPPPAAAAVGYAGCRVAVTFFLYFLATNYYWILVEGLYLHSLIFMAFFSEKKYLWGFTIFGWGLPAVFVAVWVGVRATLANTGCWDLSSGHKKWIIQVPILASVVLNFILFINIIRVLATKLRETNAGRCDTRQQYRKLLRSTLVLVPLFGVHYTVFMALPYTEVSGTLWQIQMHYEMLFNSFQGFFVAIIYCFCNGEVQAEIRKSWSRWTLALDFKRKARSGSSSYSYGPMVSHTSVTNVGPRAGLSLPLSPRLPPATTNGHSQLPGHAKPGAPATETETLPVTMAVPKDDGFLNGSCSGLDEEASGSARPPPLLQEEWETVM
The experiment in a line: PTH dose response, cAMP induction in UMR-106 cells in 25% pooled human serum. In kind it is cell-based. As to conditions: interpolated from curve fit, rounded. On the procedure: (§1) UMR-106 cells are maintained in growth medium (UMR-GM, Dulbecco's Modified Eagle's Medium (DMEM) containing 10% Fetal Bovine Serum, 1% Pen-Strep (10 k units Penicillin—10 k ug/mL Streptomycin) and 1% L-glutamine) in 75-150 cm^2 tissue culture flasks until ready for use. Cells are split at a ratio between 1:4 and 1:20 when growth reaches ≥70% confluence for routing culture maintenance. Prior to initiating an assay, cells are plated in sub-culturing flasks (25 cm^2 to 150 cm^2) at a density of 10^6 cells/5 cm^2 (example 5e6 cells for T-75). The following day, flasks are starved with assay medium (UMR-Am, Phenol Red-Free DMEM, containing 1% Bovine Serum Albumin). The following day validation samples and antibody controls are pre-incubated with PTH peptide for a minimum of 30 minutes. The validation samples and controls are adjusted such that the final assay concentration of serum is equal to the assay minimum required dilution of 1:4. Twenty microliters of samples and/or controls are placed on a MSD cAMP assay plate. […] Forty microliters of the cell suspension are added to the cAMP assay plate. […] One hundred microliters of 2×MSD Read Buffer T are then added to the plates and plates are read immediately on an MSD 6000 or 56000 Sector Imager. […]

The target of data set [3] is T1, PTH1R. The experiment in a line: PTHrP dose response, cAMP induction in UMR-106 cells. In kind it is cell-based. As to conditions: interpolated from curve fit, rounded. Here is the method: as §1, with “PTHrP” for “PTH peptide”, “S6000” for “56000”

The text below walks through data of patent publication US11255842B2, “Methods for detecting neutralizing antibodies to parathyroid hormone (PTH) and parathyroid hormone-related peptide (PTHRP) analog” (Radius Health, Inc., priority 2019, dated 2022).

In the case of “Abaloparatide: parathyroid hormone-related peptide (PTHrP) (1-34) analog which acts as a PTH1 receptor (PTH1R) agonist”, in data set [1], the “antibody-positive patients who developed neutralizing antibodies to Abaloparatide” value was 68%, the “patients who developed anti-Abaloparatide antibodies” value is recorded as 49%, the “patients who developed cross-reactivity to PTHrP” value is 2.3% and the “patients who developed cross-reactivity to parathyroid hormone (PTH)” value is given as 0%. Further, the “patients who developed neutralizing antibodies to PTHrP” value in data set [1] was 43%.
Regarding “PTH: Parathyroid Hormone Peptide (1-34)(Human), Phoenix Pharmaceuticals P/N 055-08”, in the data set with PTH1R [2], the “EC20 of the PTH response” value is 0.728 ng/mL and the “EC30 of the PTH response” value is 0.436 ng/mL.
Regarding “PTHrP: PTHrP (1-34)(Human, Rat, Mouse) peptide, Phoenix Pharmaceuticals P/N 056-04”, in the data set with PTH1R [3], the “EC20 of the PTHrP response” value was 0.728 ng/mL and the “EC30 of the PTHrP response” value was 0.436 ng/mL.
